We go through three molecules from article PMC12782892, “Natural variations in MdBPM2/MdRGLG3‐MdNAC83 network controlling the quantitative segregation of apple fruit storability”.

The target in the data set is MdNAC83 (Malus domestica, UniProt D9ZJA0 1-255). Nature of the data set: EMSA; LightShift Chemiluminescent EMSA kit (Thermo), per Fan et al. 2018; buffer, salt, pH and temperature not stated. As to conditions: protein: recombinant, tags: His (pET-32a), chain copies: 2, blunt. For orientation: A gel shift assay detects complexes by their altered migration in electrophoresis.
MdNAC83, sequence (D9ZJA0 entry or part of it): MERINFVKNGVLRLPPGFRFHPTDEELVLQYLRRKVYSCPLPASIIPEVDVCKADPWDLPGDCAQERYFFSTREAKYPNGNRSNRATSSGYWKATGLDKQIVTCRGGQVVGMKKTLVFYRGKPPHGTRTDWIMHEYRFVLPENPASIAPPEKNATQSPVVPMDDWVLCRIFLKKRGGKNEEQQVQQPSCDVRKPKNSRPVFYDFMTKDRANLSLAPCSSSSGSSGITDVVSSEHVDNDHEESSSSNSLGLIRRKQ

B1: MdACO1 promoter probe (MdACO1-F/R) (dsDNA)
DNA 1: TTGGTAGGGGTCCATCAGGACGTGCTTACTGTTCCCTACT
DNA 2: AGTAGGGAACAGTAAGCACGTCCTGATGGACCCCTACCAA
As for B1, under “(LightShift kit; MdACO1-HotF)”, the binding result is “binds”.

B2: MdMANA3 promoter probe (MdMAN3-F/R) (dsDNA)
DNA 1: GGTTAATTTTCTCAATTTCGTATTGATTTACTCTTGTACT
DNA 2: AGTACAAGAGTAAATCAATACGAAATTGAGAAAATTAACC
For the molecule B2, under “(LightShift kit; MdMAN3-HotF)”, the binding result is recorded as “binds”.

B3: MdXTH28 promoter probe (MdXH28-F/R) (dsDNA)
DNA 1: CCGTCCAAACCAGTAAACACGTAATTATAATCTCATTTAT
DNA 2: ATAAATGAGATTATAATTACGTGTTTACTGGTTTGGACGG
Regarding B3, the binding result ((LightShift kit)) is given as “binds”.
